Experimental data taken from patent US20220251170A1 (KOREA INSTITUTE OF SCIENCE AND TECHNOLOGY, published 2022).

Target: T1, human CD47 on the surface of HT29 and Raji tumor cells (human, UniProt Q08722 19-323)
T1 construct: whole, on cells; also called cell surface CD47
Assay: cell binding assay, flow cytometry, anti-Myc detection (FIG. 15A)
Method: Cell binding analysis according to one embodiment of the present invention was carried out by culturing HT29 human colon adenocarcinoma (ATCC), Raji human B cell lymphoma (ATCC) and CT26.CL25 mouse colon cancer cells (ATCC) in RPMI-1640 culture medium supplemented with 10% FBS and 1% antibiotics and the cultures were maintained at 37° C. and 5% CO₂. HT29 and Raji cells were then cultured with the addition of an anti-human CD47 antibody (B6H12.2, Abcam, ab3283) and CT26.CL25 cells were incubated with anti-mouse CD47 antibody (Santa Cruz, sc-12731). For cell binding assays, HT29, Raji and CT26.CL25 cells (1×10⁶) were incubated at 4° C. for 30 minutes with the addition of PBS, exosomes or mSIRPα, respectively. The cells were then incubated with anti-Myc antibodies (1:400, Abcam, ab9106) and detected by the addition of Alexa fluor 488-conjugated secondary antibody (1:800, Jackson ImmunoResearch). The cells were then measured using an Accuri™ C6 flow cytometer (BD Biosciences) and analyzed using FlowJo_V10 software (FlowJo). The binding specificity of SIRPα-exosomes to CD47 was analyzed by block experiments through pre-incubation of cells with anti-human CD47 antibody (1:100, Abcam, ab3283).

T1 sequence (Q08722 19-323): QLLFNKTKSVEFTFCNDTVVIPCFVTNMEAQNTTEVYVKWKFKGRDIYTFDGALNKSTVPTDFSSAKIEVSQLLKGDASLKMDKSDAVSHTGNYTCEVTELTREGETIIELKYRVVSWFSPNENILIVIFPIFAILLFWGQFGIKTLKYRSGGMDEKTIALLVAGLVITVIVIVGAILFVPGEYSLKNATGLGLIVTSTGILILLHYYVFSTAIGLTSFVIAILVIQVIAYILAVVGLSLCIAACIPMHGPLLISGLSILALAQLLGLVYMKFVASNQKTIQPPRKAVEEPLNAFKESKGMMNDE

binding result: binds
B1: purified recombinant SIRPα-Myc monomer protein (mSIRPα) (receptor)
chain: EEELQIIQPDKSVLVAAGETATLRCTITSLFPVGPIQWFRGAGPGRVLIYNQRQGPFPRVTTVSDTTKRNNMDFSIRIGNITPADAGTYYCIKFRKGSPDDVEFKSGAGTELSVRAKP
notes: Expressed in bacteria from pET-28a (Nde I-SIRPα variant-Myc-Hind III), purified on Ni-NTA; also called monomeric SIRPα protein; recombinant SIRPα protein; not shown: N-terminal histidine tag from pET-28a; C-terminal Myc tag
